Reference: publication PMC8246471

Target: PriA helicase (UniProt P17888 1-732)
Assay: ATPase DNA titration

Chain of PriA helicase (P17888 whole entry): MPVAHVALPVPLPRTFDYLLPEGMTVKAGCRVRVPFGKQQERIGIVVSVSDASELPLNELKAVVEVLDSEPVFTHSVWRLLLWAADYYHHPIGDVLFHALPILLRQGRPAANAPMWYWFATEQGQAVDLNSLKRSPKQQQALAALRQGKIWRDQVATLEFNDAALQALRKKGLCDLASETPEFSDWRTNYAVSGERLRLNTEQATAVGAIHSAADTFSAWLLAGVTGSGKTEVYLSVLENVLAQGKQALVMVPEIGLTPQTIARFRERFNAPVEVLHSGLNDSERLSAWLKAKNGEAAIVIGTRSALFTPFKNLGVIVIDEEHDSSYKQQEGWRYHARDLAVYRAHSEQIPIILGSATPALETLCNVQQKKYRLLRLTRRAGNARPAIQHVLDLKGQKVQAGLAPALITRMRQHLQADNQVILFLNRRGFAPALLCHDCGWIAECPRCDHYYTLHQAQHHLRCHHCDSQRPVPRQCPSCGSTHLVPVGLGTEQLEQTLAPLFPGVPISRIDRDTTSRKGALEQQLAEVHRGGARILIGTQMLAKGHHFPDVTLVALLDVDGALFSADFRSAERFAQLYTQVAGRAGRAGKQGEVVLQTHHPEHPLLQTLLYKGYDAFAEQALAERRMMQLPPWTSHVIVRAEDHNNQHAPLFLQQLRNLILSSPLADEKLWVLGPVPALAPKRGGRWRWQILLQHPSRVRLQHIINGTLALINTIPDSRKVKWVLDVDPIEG

B1: Fork 1 (mixed)
DNA 1: CTAGAGACGCTGCCGAATTCTGGCTTGGATCTGATGCTGTCTAGAGGCCTCCACTATGAAATCGCTGCA
DNA 2: CCGGGCTGCAGAGCTCATAGATCGATAGTCTCTAGACAGCATCAGATCCAAGCCAGAATTCGGCAGCGTCT
  apparent K (half saturation): 5.7 ± 0.7 nM
